Patent US12529083B2, “CYP76AD1-beta clade polynucleotides, polypeptides, and methods for producing betalains” (YEDA RESEARCH AND DEVELOPMENT CO. LTD., priority 2015, dated 2026)

System: tyrosine hydroxylation to L-DOPA
Assay: Transient expression in N. benthamiana leaves, LC-MS detection of L-DOPA
Assay type: in vivo, Nicotiana benthamiana
Settings: vector or gene infiltrated without BvDODA1, LC-MS
Description: In all cases, agrobacteria were grown overnight in LB media and brought to a final O.D.600 0.2 in infiltration buffer. When co-infiltrated, agrobacteria carrying separate constructs were each brought to O.D.600 0.2 and mixed in a 1:1 ratio before infiltration. Tissues used for subsequent LC-MS analysis were sampled from leaves 7 days post infiltration. For LC-MS analysis of L-DOPA and betalains, 3-4 biological replicates for each experiment were sampled, each consisting of infiltrated tissues from 2-3 different leaves. For L-DOPA analysis, samples were extracted as described above and analyzed using a UPLC/PDA-MSMS instrument, where a UPLC separation module (Waters Acquity) was connected to a photodiode array detector (Waters Acquity 2996, 190-800 nm), and (on-line) to a triple quadrupole MS detector (Waters Xevo TQ MS), equipped with an ESI source. […] Samples were analyzed in positive ionization mode, using the following settings: capillary—2 kV, cone—26 eV, with two transitions 198.1>152.1 (collision—15 eV) and 198.1>181.1 (collision—10 eV) used for compound assignment. […]

B1: CYP76AD15: Mirabilis jalapa cytochrome P450, functional ortholog of CYP76AD6, catalyzing formation of L-DOPA from tyrosine (SEQ ID NO: 44) (protein, listed as Mirabilis jalapa)
chain: MENTMLGVILATIFLTFHIMKMLFSPSKVKLPPGPRPLPIIGNILELGDKPHRSFANLAKIHGPLVTLKLGSVTTIVVSSSEVAKEMFLKNDQPLANRTIPDSVRAGNHDKLSMSWLPVSPKWRNLRKISAVQLLSTQRLDASQAHRQAKIKQLIEYVKKCSKIGQYVDIGQVAFTTSLNLLSNTFFSKELASFDSDNAQEFKQLMWCIMEEIGRPNYADYFPILGYVDPFGARRRLSRYFDQLIEVFQVIIRERLTHDNNIVGNNNDVLATLLDLYKQNELTMDEINHLLVDIFDAGTDTTASTLEWAMSELIKNPHIMAKAQEEVRRATMSHGGATVAEIQESDINNLPYIQSIIKETLRLHPPTVFLLPRKADVDVQLFGYVVPKNAQVLVNLWAIGRDPNVWPDPEVFSPERFMDCEIDVKGRDFELLPFGAGRRICPGLSLAYRMLNLMLANMVHSFDWKLPGVENGSGSEMDSLDMDEKFGITLQKVQPLKVIPVSRK
B1 was tested, and the L-DOPA production was “L-DOPA production when infiltrated alone”.
